{"source": "paper PMC4441793", "key": {"[1]": {"molecular_target": "HIV-1 reverse transcriptase p66 subunit (immature RT precursor) (human immunodeficiency virus type 1 (HIV-1))", "test": "SEC-MALS"}, "[2]": {"molecular_target": "HIV-1 reverse transcriptase p51 subunit (residues 1-440) (human immunodeficiency virus type 1 (HIV-1))", "test": "SEC-MALS"}}, "data": [{"substance": "HIV-1 reverse transcriptase p66 subunit (immature RT precursor) (enzyme)", "values": [{"measurement": "stoichiometry N", "setting": "[1]", "result": 2}]}, {"substance": "HIV-1 reverse transcriptase p51 subunit (residues 1-440) (domain or fragment)", "values": [{"measurement": "percent dimer in the NMR sample", "setting": "[2]", "result": "< 60", "unit": "%"}, {"measurement": "stoichiometry N", "setting": "[2]", "result": 2}]}]}
